Test results from PMC7954794, “Protein context shapes the specificity of SH3 domain-mediated interactions in vivo” (Nature Communications, 2021).

System: Abp1 PPIs
Assay: DHFR-PCA of Abp1 SH3-swapped baits (Fig. 2B-D, S2C, S2F);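 on Protein-protein interaction distance between Abp1 SH3-swapped baits, to ABP1: Euclidean distance between DHFR-PCA score profiles of the baits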;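 on Protein-protein interaction distance between Abp1 SH3-swapped baits, to BEM1-2: Euclidean distance between DHFR-PCA score profiles of the baits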;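 on Protein-protein interaction distance between Abp1 SH3-swapped baits, to BOI1: Euclidean distance between DHFR-PCA score profiles of the baits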;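 on Protein-protein interaction distance between Abp1 SH3-swapped baits, to BZZ1-1: Euclidean distance between DHFR-PCA score profiles of the baits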
Format: cell-based, Saccharomyces cerevisiae
Details: sheet Fig2C; for Protein-protein interaction distance between Abp1 SH3-swapped baits, to ABP1: Abp1 bait with swapped SH3, distance to bait with ABP1 SH3; for Protein-protein interaction distance between Abp1 SH3-swapped baits, to BBC1: distance to Abp1 bait with BBC1 SH3; for Protein-protein interaction distance between Abp1 SH3-swapped baits, to BEM1-1: distance to Abp1 bait with BEM1-1 SH3; for Protein-protein interaction distance between Abp1 SH3-swapped baits, to BEM1-2: distance to Abp1 bait with BEM1-2 SH3; for Protein-protein interaction distance between Abp1 SH3-swapped baits, to BOI1: distance to Abp1 bait with BOI1 SH3; for Protein-protein interaction distance between Abp1 SH3-swapped baits, to BOI2: distance to Abp1 bait with BOI2 SH3; for Protein-protein interaction distance between Abp1 SH3-swapped baits, to BUD14: distance to Abp1 bait with BUD14 SH3; for Protein-protein interaction distance between Abp1 SH3-swapped baits, to BZZ1-1: distance to Abp1 bait with BZZ1-1 SH3; for Protein-protein interaction distance between Abp1 SH3-swapped baits, to BZZ1-2: distance to Abp1 bait with BZZ1-2 SH3; for Protein-protein interaction distance between Abp1 SH3-swapped baits, to CDC25: distance to Abp1 bait with CDC25 SH3; for Protein-protein interaction distance between Abp1 SH3-swapped baits, to CTTN: distance to Abp1 bait with CTTN SH3; for Protein-protein interaction distance between Abp1 SH3-swapped baits, to CYK3: distance to Abp1 bait with CYK3 SH3; for Protein-protein interaction distance between Abp1 SH3-swapped baits, to DBNL: distance to Abp1 bait with DBNL SH3; for Protein-protein interaction distance between Abp1 SH3-swapped baits, to FUS1: distance to Abp1 bait with FUS1 SH3; for Protein-protein interaction distance between Abp1 SH3-swapped baits, to HCLS1: distance to Abp1 bait with HCLS1 SH3; for Protein-protein interaction distance between Abp1 SH3-swapped baits, to HOF1: distance to Abp1 bait with HOF1 SH3; for Protein-protein interaction distance between Abp1 SH3-swapped baits, to HSE1: distance to Abp1 bait with HSE1 SH3; for Protein-protein interaction distance between Abp1 SH3-swapped baits, to LSB1: distance to Abp1 bait with LSB1 SH3; for Protein-protein interaction distance between Abp1 SH3-swapped baits, to LSB3: distance to Abp1 bait with LSB3 SH3; for Protein-protein interaction distance between Abp1 SH3-swapped baits, to MYO3: distance to Abp1 bait with MYO3 SH3; for Protein-protein interaction distance between Abp1 SH3-swapped baits, to MYO5: distance to Abp1 bait with MYO5 SH3; for Protein-protein interaction distance between Abp1 SH3-swapped baits, to NBP2: distance to Abp1 bait with NBP2 SH3; for Protein-protein interaction distance between Abp1 SH3-swapped baits, to PEX13: distance to Abp1 bait with PEX13 SH3; for Protein-protein interaction distance between Abp1 SH3-swapped baits, to PIN3: distance to Abp1 bait with PIN3 SH3; for Protein-protein interaction distance between Abp1 SH3-swapped baits, to RVS167: distance to Abp1 bait with RVS167 SH3; for Protein-protein interaction distance between Abp1 SH3-swapped baits, to SDC25: distance to Abp1 bait with SDC25 SH3; for Protein-protein interaction distance between Abp1 SH3-swapped baits, to SHO1: distance to Abp1 bait with SHO1 SH3; for Protein-protein interaction distance between Abp1 SH3-swapped baits, to SLA1-1: distance to Abp1 bait with SLA1-1 SH3; for Protein-protein interaction distance between Abp1 SH3-swapped baits, to SLA1-2: distance to Abp1 bait with SLA1-2 SH3; for Protein-protein interaction distance between Abp1 SH3-swapped baits, to SLA1-3: distance to Abp1 bait with SLA1-3 SH3; for Protein-protein interaction distance between Abp1 SH3-swapped baits, to YSC84: distance to Abp1 bait with YSC84 SH3
Outline: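 Yeast DHFR-PCA in which Abp1 baits, carrying their SH3 replaced by CRISPR–Cas9 with one of 27 yeast SH3s or human CTTN, HCLS1 or DBNL SH3s, were mated against 575 SH3-associated DHFR F[3] preys plus 40 negative controls. Four tests were run per PPI. Diploids were selected twice (48 h, 30 °C), then grown 4 days on PCA selection media.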

Row | Molecule | Protein-protein interaction distance between Abp1 SH3-swapped baits, to ABP1 | Protein-protein interaction distance between Abp1 SH3-swapped baits, to BBC1 | Protein-protein interaction distance between Abp1 SH3-swapped baits, to BEM1-1 | Protein-protein interaction distance between Abp1 SH3-swapped baits, to BEM1-2 | Protein-protein interaction distance between Abp1 SH3-swapped baits, to BOI1 | Protein-protein interaction distance between Abp1 SH3-swapped baits, to BOI2 | Protein-protein interaction distance between Abp1 SH3-swapped baits, to BUD14 | Protein-protein interaction distance between Abp1 SH3-swapped baits, to BZZ1-1 | Protein-protein interaction distance between Abp1 SH3-swapped baits, to BZZ1-2 | Protein-protein interaction distance between Abp1 SH3-swapped baits, to CDC25 | Protein-protein interaction distance between Abp1 SH3-swapped baits, to CTTN | Protein-protein interaction distance between Abp1 SH3-swapped baits, to CYK3 | Protein-protein interaction distance between Abp1 SH3-swapped baits, to DBNL | Protein-protein interaction distance between Abp1 SH3-swapped baits, to FUS1 | Protein-protein interaction distance between Abp1 SH3-swapped baits, to HCLS1 | Protein-protein interaction distance between Abp1 SH3-swapped baits, to HOF1 | Protein-protein interaction distance between Abp1 SH3-swapped baits, to HSE1 | Protein-protein interaction distance between Abp1 SH3-swapped baits, to LSB1 | Protein-protein interaction distance between Abp1 SH3-swapped baits, to LSB3 | Protein-protein interaction distance between Abp1 SH3-swapped baits, to MYO3 | other results
1 | CYK3 (protein, UniProt Q07533 1-885, looked up) Cytokinesis protein 3: MATNLTSLKPPFKVKARYGWSGQTKGDLGFLEGDIMEVTRIAGSWFYGKLLRNKKCSGYFPHNFVILLEERLNSSTENGRQPSKIVESFEKSNKVVIPPVPSRYSDERPRPKKKLSSSMPNSPKKPVDSLTKARKAKSKEMVNEKNIYNTQSSRHHNNSAPNLPLASHSKPQVRNFEESMNNPLPPLPPLPDLDNMRKTDKRAPKKSYSANDLHMARSSREYNYYKDNQKFYDGFIPEKRYSLEEDSISSGLFSNSQYLNDSACSSENSFALMSDFSATSAGSFARHKYAQSFSDSLQRSQNANGCSTKINDSQEFGDSNASSRNGKMGDILRKIIIPKRNTNIYSSSVSSPKSPKAYPKLPDIQNLNLSATPDEARDWIAVKCHLNRARTLTKYDKHPRYMRALEENRDLILHPQDSIYNGLNTNEVKGNTKPGLVDVELAELNIEYIDKMTWKRCIRDGTMTLDSWAQTTFSARYSTVLEKLRGIYIFCTEMFALTDDNGTSDFSAEPQNLEKILYRKHCTPYELTWLFKKLANSLGITCEIVIGFLKTPSAINWEFKYNHCWLRILVNKEWRFIDVILGNVTNPIHEFVNNRKIKKAENSYFLMAPLEMIYTHIPPREFEQHIVPSIDQLSALYLPLVFPSFFKNELKLYKFSTALSFLEDSEIYECSLEIPNDVEVFASVVIPTDNEEASSAYRNMELALTQIKKQKAESGRRIALIKAVLPPNVNKGSLYIHSGVRGTQTSIANIHPLSMMVPLTHKGSNMKYEFVIKIPSESIQKIELYIVEPQSRYLFVGNEYSFEVIQSPSDGIVYSSDEGPNQNRKQPMAIKSPSGRVHELVKSDPHFPYGTWKGSIKIKEPGVWSALVIADSGIGWSVFAEWLCV | 26.78 | 25.11 | 17.6 | 11.87 | 21.68 | 20.06 | 16.1 | 26.08 | 22.45 | 5.497 | 21.37 | 0.00 | 25.11 | 14.91 | 28.59 | 10.8 | 25.16 | 31.53 | 31.13 | 30.11 | Protein-protein interaction distance between Abp1 SH3-swapped baits, to MYO5: 29.49; Protein-protein interaction distance between Abp1 SH3-swapped baits, to NBP2: 15.74; Protein-protein interaction distance between Abp1 SH3-swapped baits, to PEX13: 29.86; Protein-protein interaction distance between Abp1 SH3-swapped baits, to PIN3: 28.76; Protein-protein interaction distance between Abp1 SH3-swapped baits, to RVS167: 28.09; Protein-protein interaction distance between Abp1 SH3-swapped baits, to SDC25: 15.21; Protein-protein interaction distance between Abp1 SH3-swapped baits, to SHO1: 24.75; Protein-protein interaction distance between Abp1 SH3-swapped baits, to SLA1-1: 5.436; Protein-protein interaction distance between Abp1 SH3-swapped baits, to SLA1-2: 14.43; Protein-protein interaction distance between Abp1 SH3-swapped baits, to SLA1-3: 31.65; Protein-protein interaction distance between Abp1 SH3-swapped baits, to YSC84: 31.42
2 | FUS1 (protein, UniProt P11710 1-512, looked up) Nuclear fusion protein FUS1: MVATIMQTTTTVLTTVAAMSTTLASNYISSQASSSTSVTTVTTIATSIRSTPSNLLFSNVAAQPKSSSASTIGLSIGLPIGIFCFGLLILLCYFYLKRNSVSISNPPMSATIPREEEYCRRTNWFSRLFWQSKCEDQNSYSNRDIEKYNDTQWTSGDNMSSKIQYKISKPIIPQHILTPKKTVKNPYAWSGKNISLDPKVNEMEEEKVVDAFLYTKPPNIVHIESSMPSYNDLPSQKTVSSKKTALKTSEKWSYESPLSRWFLRGSTYFKDYGLSKTSLKTPTGAPQLKQMKMLSRISKGYFNESDIMPDERSPILEYNNTPLDANDSVNNLGNTTPDSQITSYRNNNIDLITARPHSVIYGTTAQQTLETNFNDHHDCNKSTEKHELIIPTPSKPLKKRKKRRQSKMYQHLQHLSRSKPLPLTPNSKYNGEASVQLGKTYTVIQDYEPRLTDEIRISLGEKVKILATHTDGWCLVEKCNTQKGSIHVSVDDKRYLNEDRGIVPGDCLQEYD | 18.44 | 16.64 | 8.021 | 22.67 | 12.53 | 10.5 | 7.121 | 17.24 | 12.64 | 14.2 | 13.46 | 14.91 | 16.42 | 0.00 | 20.02 | 21.29 | 16.23 | 23.45 | 23.48 | 21.97 | Protein-protein interaction distance between Abp1 SH3-swapped baits, to MYO5: 21.47; Protein-protein interaction distance between Abp1 SH3-swapped baits, to NBP2: 8.037; Protein-protein interaction distance between Abp1 SH3-swapped baits, to PEX13: 21.37; Protein-protein interaction distance between Abp1 SH3-swapped baits, to PIN3: 21.08; Protein-protein interaction distance between Abp1 SH3-swapped baits, to RVS167: 19.5; Protein-protein interaction distance between Abp1 SH3-swapped baits, to SDC25: 24.28; Protein-protein interaction distance between Abp1 SH3-swapped baits, to SHO1: 16.07; Protein-protein interaction distance between Abp1 SH3-swapped baits, to SLA1-1: 17.65; Protein-protein interaction distance between Abp1 SH3-swapped baits, to SLA1-2: 8.845; Protein-protein interaction distance between Abp1 SH3-swapped baits, to SLA1-3: 23.5; Protein-protein interaction distance between Abp1 SH3-swapped baits, to YSC84: 23.88
